Reference: US20250152742A1, “COMPOSITIONS AND METHODS FOR NEUROLOGICAL DISEASES” (Trames Bio, Inc., priority 2022, published 2025)

Tests used:
[1] = test system: engineered chimeric receptor SEQ ID NO: 33 and its mutants (human α7-nAChR ligand binding domain / human GlyRα1 ion pore domain) in Lenti-X 293T cells; experiment: YFP fluorescence quenching anion reporter plate reader assay (percent quench, EC50); type: cell-based; conditions: for YFP fluorescence quenching using Facinicline, 30 nM fac: ligand Facinicline 30 nM; for YFP fluorescence quenching using Facinicline, 300 nM fac: ligand Facinicline 300 nM; for YFP fluorescence quenching using Facinicline, 30 uM fac: ligand Facinicline 30 uM; for YFP fluorescence quenching using TC-6987, 1 uM tc6987: ligand TC-6987 1 uM; for YFP fluorescence quenching using TC-6987, 10 uM tc6987: ligand TC-6987 10 uM; for YFP fluorescence quenching using TC-6987, 500 uM tc6987: ligand TC-6987 500 uM; for YFP fluorescence quenching using CNL001 (percent quench): receptor named in row; for YFP fluorescence quenching using Varenicline, 3 nM var: ligand Varenicline 3 nM; for YFP fluorescence quenching using Varenicline, 30 nM var: ligand Varenicline 30 nM; for YFP fluorescence quenching using Varenicline, 300 nM var: ligand Varenicline 300 nM; for YFP fluorescence quenching using Varenicline, 500 nM var: ligand Varenicline 500 nM; for YFP fluorescence quenching using Varenicline, 1 uM var: ligand Varenicline 1 uM
Procedure, shortened: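 Lenti-X 293T cells co-expressing an anion-quenchable YFP were transiently transfected with receptor DNA, then ligand was added in NaI-substituted buffer (pH 7.2) after 30 min at 37 °C. Fluorescence was read about 2 min; percent quench = mean of last 10 s over 15 s pre-ligand baseline.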

[2] = test system: engineered receptors and wild type nAchRa7 expressed in HEK293T cells; experiment: High throughput electrophysiology (IonFlux HT/Mercury automated patch clamp), EC50; type: cell-based, human
Description: To confirm the […] determined by plate reader as well as develop a better understanding of maximum current flow, the engineered receptors were subjected to high throughput electrophysiology system, as described below. For HEK293T studies, cDNAs encoding ion channels were cloned into pcDNA3.1 using standard recombination techniques. HEK293T cells from Clontech (Lenti-XTM 293T Cell Line) were cultured in DMEM supplemented with 10% FBS and 1% Pen/Strep to 40-50% confluence using standard cell culture protocols, transfected with ion channel plasmids at a concentration of 18 μg per 15 cm dish using Fugene 6, and grown for an additional 24 hours. Cells were then assayed on an electrophysiological system (IonFluxHT and/or Mercury, Fluxion Biosciences) in which dose-response relationships may be assessed through a microfluidics-based platform for establishing whole cell configurations. Ensemble plates were primed with extracellular buffer (140 mM NaCl, 5 mM KCl, 2 mM CaCl2), 1 mM MgCl2, 10 mM HEPES, and 10 mM glucose, pH 7.2 with NaOH, mOsm 310), intracellular buffer (145 mM CsCl, 2 mM CaCl2, 2 mM MgCl2, 10 mM HEPES, and 10 mM EGTA, pH 7.2 with CsOH, mOsm 305), as adapted from Lynagh and Lynch, and test compounds (stocks prepared fresh) diluted in extracellular buffer. Cells were then released from the plate with Accutase, centrifuged, resuspended in extracellular buffer, and loaded into Ensemble plates. Cells were then subjected to a standard protocol for priming, trapping, breaking, and establishing whole cell configuration, with cells held at −60 mV throughout the recording. After recording baseline, progressive doses of test compounds were applied using the IonFlux software to assess dose response relationships. Data were then analyzed off-line using custom Python scripts to convert data to .csv format, re-plot traces, and apply QC measurements to reject unstable recordings (i.e. thresholding based on access resistance and/or standard deviation in baseline, as well as artifact rejection). Peak currents were then calculated, and population data were fit using a 4-parameter logistic equation as described by the Hill Equation. Currents were measured on an automated patch clamp system (Fluxion Biosciences) following 1 second addition of drug and the EC50 values calculated are tabulated below in Table 22A and Table 22B below and Table 21A and Table 21B above (in Example 2).

[3] = 3 nM brd (TC-5619/Bradanicline)
[4] = 30 nM brd (TC-5619/Bradanicline)
[5] = 300 nM brd (TC-5619/Bradanicline)

B1: CODA536: engineered receptor: L131D, S172D in SEQ ID NO: 33 (protein)
chain: MRCSPGGVWLALAASLLHVSLQGEFQRKLYKELVKNYNPLERPVANDSQPLTVYFSLSLLQIMDVDEKNQVLTTNIWLQMSWTDHYLQWNVSEYPGVKTVRFPDGQIWKPDILLYNSADERFDATFHTNVDVNSSGHCQYLPPGIFKSSCPMDLKNFPMDVQTCKLKFGSWDYGGWSLDLQMQEADISGYIPNGEWDLVGIPGKRSERFYECCKEPYPDVTFTVTMRRRMGYYLIQMYIPSLLIVILSWISFWINMDAAPARVGLGITTVLTMTTQSSGSRASLPKVSYVKAIDIWMAVCLLFVFSALLEYAAVNFVSRQHKELLRFRRKRRHHKSPMLNLFQEDEAGEGRFNFSAYGMGPACLQAKDGISVKGANNSNTTNPPPAPSKSPEEMRKLFIQRAKKIDKISRIGFPMAFLIFNMFYWIIYKIVRREDVHNQ
modifications: synthetic sequence of chimeric LGIC
[1]; 1 nM brd (TC-5619/Bradanicline)
  YFP fluorescence quenching using TC-5619/Bradanicline (percent quench): −1.24%
[1]; [3]
  YFP fluorescence quenching using TC-5619/Bradanicline (percent quench): 0.25%
[1]; 10 nM brd (TC-5619/Bradanicline)
  YFP fluorescence quenching using TC-5619/Bradanicline (percent quench): −2.57%
[1]; 30 nM TC-6683
  YFP fluorescence quenching using TC-6683 (percent quench): −22.285%
[1]; [4]
  YFP fluorescence quenching using TC-5619/Bradanicline (percent quench): 0.78%
[1]; 50 nM abt (ABT-126)
  YFP fluorescence quenching using ABT-126 (percent quench): −3.19%
[1]; 100 nM CNL002
  YFP fluorescence quenching (percent quench): 71.72%
[1]; 100 nM abt (ABT-126)
  YFP fluorescence quenching using ABT-126 (percent quench): 7.58%
[1]; 100 nM azd0328
  YFP fluorescence quenching using AZD-0328 (percent quench): 51.44%
[1]; 100 nM brd (TC-5619/Bradanicline)
  YFP fluorescence quenching using TC-5619/Bradanicline (percent quench): 4.51%
[1]; 300 nM TC-6683
  YFP fluorescence quenching using TC-6683 (percent quench): −23.926%
[1]; 300 nM abt (ABT-126)
  YFP fluorescence quenching using ABT-126 (percent quench): −1.65%
[1]; 300 nM azd0328
  YFP fluorescence quenching using AZD-0328 (percent quench): 77.12%
[1]; [5]
  YFP fluorescence quenching using TC-5619/Bradanicline (percent quench): 30.97%
[1]; 1 uM CNL002
  YFP fluorescence quenching (percent quench): 77.26%
[1]; 1 uM abt (ABT-126)
  YFP fluorescence quenching using ABT-126 (percent quench): 31.29%
[1]; 1 uM brd (TC-5619/Bradanicline)
  YFP fluorescence quenching using TC-5619/Bradanicline (percent quench): 44.41%
[1]; 3 uM TC-6683
  YFP fluorescence quenching using TC-6683 (percent quench): −20.514%
[1]; 10 uM ach (acetylcholine)
  YFP fluorescence quenching (percent quench): −12.91%
[1]; 30 uM CNL002
  YFP fluorescence quenching (percent quench): 77.5%
[1]; 30 uM TC-6683
  YFP fluorescence quenching using TC-6683 (percent quench): −3.078%
[1]; 30 uM azd0328
  YFP fluorescence quenching using AZD-0328 (percent quench): 79.26%
[1]; 100 uM TC-6683
  YFP fluorescence quenching using TC-6683 (percent quench): 7.37%
[1]; 100 uM ach (acetylcholine)
  YFP fluorescence quenching (percent quench): −20.88%
[1]; 1 mM ach (acetylcholine)
  YFP fluorescence quenching (percent quench): 79.85%
[1]; 3 mM ach (acetylcholine)
  YFP fluorescence quenching (percent quench): 79.98%
[1]
  YFP fluorescence quenching using Facinicline, 30 nM fac: 24.15
  YFP fluorescence quenching using Facinicline, 300 nM fac: 80.17
  YFP fluorescence quenching using Facinicline, 30 uM fac: 79.9
  YFP fluorescence quenching using TC-6987, 1 uM tc6987: −18.24
  YFP fluorescence quenching using TC-6987, 10 uM tc6987: −23.06
  YFP fluorescence quenching using TC-6987, 500 uM tc6987: −19.3
[1]; ligand Facinicline 10 uM
  YFP fluorescence quenching using Facinicline, 10 uM fac: 81.34
[2]; ligand AZD-0328
  fold increased potency towards AZD-0328 compared to wild type control receptor: at least 10 fold
[2]; ligand RG-3487
  fold increased potency towards RG-3487 compared to wild type receptor: at least 10 fold

B2: CODA109: engineered receptor: S170T in SEQ ID NO: 33 (protein)
chain: MRCSPGGVWLALAASLLHVSLQGEFQRKLYKELVKNYNPLERPVANDSQPLTVYFSLSLLQIMDVDEKNQVLTTNIWLQMSWTDHYLQWNVSEYPGVKTVRFPDGQIWKPDILLYNSADERFDATFHTNVLVNSSGHCQYLPPGIFKSSCPMDLKNFPMDVQTCKLKFGTWSYGGWSLDLQMQEADISGYIPNGEWDLVGIPGKRSERFYECCKEPYPDVTFTVTMRRRMGYYLIQMYIPSLLIVILSWISFWINMDAAPARVGLGITTVLTMTTQSSGSRASLPKVSYVKAIDIWMAVCLLFVFSALLEYAAVNFVSRQHKELLRFRRKRRHHKSPMLNLFQEDEAGEGRFNFSAYGMGPACLQAKDGISVKGANNSNTTNPPPAPSKSPEEMRKLFIQRAKKIDKISRIGFPMAFLIFNMFYWIIYKIVRREDVHNQ
modifications: synthetic sequence of chimeric LGIC
[1]; 1 nM CNL001, first column so headed
  YFP fluorescence quenching using CNL001 (percent quench): 19.755%
[1]; 1 nM CNL001, second column so headed
  YFP fluorescence quenching using CNL001 (percent quench): 65.484%
[1]; [3]
  YFP fluorescence quenching using TC-5619/Bradanicline (percent quench): 70.58%
[1]; 10 nM CNL001, first column so headed
  YFP fluorescence quenching using CNL001 (percent quench): 79.024%
[1]; 10 nM CNL001, second column so headed
  YFP fluorescence quenching using CNL001 (percent quench): 81.563%
[1]; [4]
  YFP fluorescence quenching using TC-5619/Bradanicline (percent quench): 80.71%
[1]; 50 nM CNL001, first column so headed
  YFP fluorescence quenching using CNL001 (percent quench): 81.926%
[1]; 50 nM CNL001, second column so headed
  YFP fluorescence quenching using CNL001 (percent quench): 83.092%
[1]; 50 nM abt (ABT-126)
  YFP fluorescence quenching using ABT-126 (percent quench): 55.83%
[1]; 100 nM CNL001, first column so headed
  YFP fluorescence quenching using CNL001 (percent quench): 83%
[1]; 100 nM CNL001, second column so headed
  YFP fluorescence quenching using CNL001 (percent quench): 83.811%
[1]; 100 nM CNL002
  YFP fluorescence quenching (percent quench): 73.48%
[1]; 100 nM abt (ABT-126)
  YFP fluorescence quenching using ABT-126 (percent quench): 68.89%
[1]; 100 nM azd0328
  YFP fluorescence quenching using AZD-0328 (percent quench): 84.01%
[1]; 300 nM abt (ABT-126)
  YFP fluorescence quenching using ABT-126 (percent quench): 72.52%
[1]; 300 nM azd0328
  YFP fluorescence quenching using AZD-0328 (percent quench): 87.08%
[1]; [5]
  YFP fluorescence quenching using TC-5619/Bradanicline (percent quench): 80.66%
[1]; 1 uM CNL001, first column so headed
  YFP fluorescence quenching using CNL001 (percent quench): 81.834%
[1]; 1 uM CNL001, second column so headed
  YFP fluorescence quenching using CNL001 (percent quench): 83.858%
[1]; 1 uM CNL002
  YFP fluorescence quenching (percent quench): 70.03%
[1]; 1 uM abt (ABT-126)
  YFP fluorescence quenching using ABT-126 (percent quench): 70.96%
[1]; 10 uM ach (acetylcholine)
  YFP fluorescence quenching (percent quench): 82.91%
[1]; 30 uM ach (acetylcholine)
  YFP fluorescence quenching (percent quench): 82.53%
[1]; 30 uM azd0328
  YFP fluorescence quenching using AZD-0328 (percent quench): 87.27%
[1]; 50 uM ach (acetylcholine)
  YFP fluorescence quenching (percent quench): 82.11%
[1]; 100 uM ach (acetylcholine)
  YFP fluorescence quenching (percent quench): 83.68%
[1]; 1 mM ach (acetylcholine)
  YFP fluorescence quenching (percent quench): 69.89%
[1]; 3 mM ach (acetylcholine)
  YFP fluorescence quenching (percent quench): 78.12%
[1]
  YFP fluorescence quenching using Facinicline, 30 nM fac: 76.45
  YFP fluorescence quenching using Facinicline, 300 nM fac: 71.09
  YFP fluorescence quenching using Facinicline, 30 uM fac: 69.41
  YFP fluorescence quenching using TC-6987, 1 uM tc6987: 71.45
  YFP fluorescence quenching using TC-6987, 10 uM tc6987: 71.04
  YFP fluorescence quenching using TC-6987, 500 uM tc6987: 66.2
[1]; ligand Facinicline 100 nM
  YFP fluorescence quenching using Facinicline, 100 nM fac: 82.45
[1]; first column
  YFP fluorescence quenching using Varenicline, 3 nM var: −20.96
  YFP fluorescence quenching using Varenicline, 30 nM var: −16.094
  YFP fluorescence quenching using Varenicline, 300 nM var: 64.373
  YFP fluorescence quenching using Varenicline, 500 nM var: 71.892
  YFP fluorescence quenching using Varenicline, 1 uM var: 75.461
[1]; second column
  YFP fluorescence quenching using Varenicline, 3 nM var: −19.953
  YFP fluorescence quenching using Varenicline, 30 nM var: −21.502
  YFP fluorescence quenching using Varenicline, 300 nM var: 71.198
  YFP fluorescence quenching using Varenicline, 500 nM var: 73.53
  YFP fluorescence quenching using Varenicline, 1 uM var: 78.578
